The source of these data is article PMC6011876, “Characterization of the ATPase FlaI of the motor complex of the Pyrococcus furiosus archaellum and its interactions between the ATP-binding protein FlaH” (PeerJ, 2018).

Where two headings read alike, the source gives them in different places.

The target in experiment [1] is T1, PfFlaI (Pyrococcus furiosus, UniProt Q8U3X0).
T1 construct: gene PF0331; full length, His-tagged, overexpressed in E. coli Rosetta (DE3), 64 kDa subunit, nucleotide-free homohexamer
T1 sequence (Q8U3X0 entry or part of it): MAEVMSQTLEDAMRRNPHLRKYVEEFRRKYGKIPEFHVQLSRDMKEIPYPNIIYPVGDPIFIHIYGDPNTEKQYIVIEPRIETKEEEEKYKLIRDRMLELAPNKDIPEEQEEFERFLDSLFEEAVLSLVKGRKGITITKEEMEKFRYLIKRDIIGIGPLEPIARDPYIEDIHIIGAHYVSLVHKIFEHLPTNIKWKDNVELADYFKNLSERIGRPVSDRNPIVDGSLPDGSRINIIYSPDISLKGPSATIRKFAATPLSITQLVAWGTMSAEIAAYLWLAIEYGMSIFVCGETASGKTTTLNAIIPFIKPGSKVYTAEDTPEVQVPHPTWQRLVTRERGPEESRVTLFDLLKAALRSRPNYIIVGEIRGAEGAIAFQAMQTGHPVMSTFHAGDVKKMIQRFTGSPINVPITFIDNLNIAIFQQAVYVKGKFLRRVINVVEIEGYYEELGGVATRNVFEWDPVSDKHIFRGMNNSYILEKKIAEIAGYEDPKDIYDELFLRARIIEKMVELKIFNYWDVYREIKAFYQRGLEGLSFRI
Nature of the experiment: fluorescence competition against bound MANT-ATP. The class given is binding. Conditions: 20 nM PfFlaI, 10 nM MANT-ATP; 5 mM MgCl2, 20 mM Tris HCl pH 8.0, 150 mM NaCl; 20 °C; Hill fit n = 0.67.

The target in experiment [2] is T1, PfFlaI. Nature of the experiment: fluorescence titration (excitation […] nm, emission […] nm). The class given is binding. Conditions: 5 mM MgCl2, 20 mM Tris HCl pH 8.0, 150 mM NaCl; 20 °C; stoichiometric titration, two sites per hexamer; labelled compound.
Experiment [3] concerns the target Pyrococcus furiosus FlaI (Pyrococcus furiosus). Nature of the experiment: SEC; Superdex 200 10/300 GL; 500 µl of protein at 1 mg/ml; 20 mM Tris HCl pH 8.0, 150 mM NaCl; no nucleotide added; fractions on SDS-PAGE. (SEC sorts molecules by how far they enter the pores of the column.)
The target of a further experiment is T2, Pyrococcus furiosus FlaH (Pyrococcus furiosus, fluorescently labeled (in the microscale thermophoresis)).
T2 chain: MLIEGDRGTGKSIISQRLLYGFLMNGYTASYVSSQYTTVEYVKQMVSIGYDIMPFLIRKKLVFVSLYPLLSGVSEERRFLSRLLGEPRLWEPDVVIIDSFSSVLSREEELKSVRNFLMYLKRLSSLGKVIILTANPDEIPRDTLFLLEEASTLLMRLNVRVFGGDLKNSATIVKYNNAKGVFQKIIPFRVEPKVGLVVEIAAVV
Description: MST; 28 nM fluorescently labeled PfFlaH titrated with 1.3 nM-22.5 µM Pf-CTD or 5.6 nM-11.6 µM Pf-NTD; 20 mM Tris HCl pH 8.0, 150 mM NaCl, 0.05% Tween-20; Monolith NT.115 Pico; fitted to the Hill equation.

Experiment [4] concerns the target Pyrococcus furiosus FlaI (Pyrococcus furiosus).
The target is the same in experiment [5]. This is another data set of the same source.

The molecule `Nc1ncnc2c1ncn2[C@@H]1O[C@H](COP(=O)(O)OP(=O)(O)OP(=O)(O)O)[C@@H](O)[C@H]1O` [ATP] came in with an IC50 at PfFlaI [1] of 0.26 µM. As for `CNc1ccccc1C(=O)O[C@H]1[C@@H](O)[C@H](n2cnc3c(N)ncnc32)O[C@@H]1COP(=O)(O)OP(=O)(O)OP(=O)(O)O` (mixture of isomers) [MANT-ATP, 2′-/3′-O-(N-methylanthraniloyl) adenosine 5′-triphosphate], the “fluorescence titration (excitation 285 nm, emission 450 nm)” value on PfFlaI [2] is given as “only two of the ATP binding sites in the hexamer are available for binding of MANT-ATP”. In experiment [3], Pyrococcus furiosus FlaI (enzyme) had a stoichiometry N of 6.

For “N-terminal domain of Pyrococcus furiosus FlaI (domain or fragment)”, the equilibrium dissociation constant (Kd) with Pyrococcus furiosus FlaH was > 8 µM. For the molecule “Pyrococcus furiosus FlaH (natural protein)”, the ATPase activity at 70 °C of 1 µM PfFlaI with increasing concentrations of PfFlaH; ratio at maximal stimulation (PfFlaH per PfFlaI) in experiment [4] amounted to 1. This molecule also registered an ATPase activity of PfFlaI at 70 °C (malachite green) on addition of PfFlaH, proteins at 1 µM in experiment [5] of 2 fold.

B1: C-terminal domain of Pyrococcus furiosus FlaI (domain or fragment)
chain: LSITQLVAWGTMSAEIAAYLWLAIEYGMSIFVCGETASGKTTTLNAIIPFIKPGSKVYTAEDTPEVQVPHPTWQRLVTRERGPEESRVTLFDLLKAALRSRPNYIIVGEIRGAEGAIAFQAMQTGHPVMSTFHAGDVKKMIQRFTGSPINVPITFIDNLNIAIFQQAVYVKGKFLRRVINVVEIEGYYEELGGVATRNVFEWDPVSDKHIFRGMNNSYILEKKIAEIAGYEDPKDIYDELFLRARIIEKMVELKIFNYWDVYREIKAFYQRGLEGLSFRI
In turn, B1 registered a Kd with Pyrococcus furiosus FlaH (both partners purified) of 0.1 µM.

A word on the IC50: it is the concentration at which inhibition is half-maximal. Lower therefore signals higher potency. Broadly, the stoichiometry N is a count of units in the complex or per binding partner. The Kd is a measure of binding affinity in units of concentration. Lower therefore signals tighter binding.
